The numbers were not newly measured in article PMC8810291, which cites them from elsewhere.

This series concerns the target FNIP1 (Homo sapiens) (UniProt Q8TF40).

Chain of FEM1B (Q9UK73 whole entry): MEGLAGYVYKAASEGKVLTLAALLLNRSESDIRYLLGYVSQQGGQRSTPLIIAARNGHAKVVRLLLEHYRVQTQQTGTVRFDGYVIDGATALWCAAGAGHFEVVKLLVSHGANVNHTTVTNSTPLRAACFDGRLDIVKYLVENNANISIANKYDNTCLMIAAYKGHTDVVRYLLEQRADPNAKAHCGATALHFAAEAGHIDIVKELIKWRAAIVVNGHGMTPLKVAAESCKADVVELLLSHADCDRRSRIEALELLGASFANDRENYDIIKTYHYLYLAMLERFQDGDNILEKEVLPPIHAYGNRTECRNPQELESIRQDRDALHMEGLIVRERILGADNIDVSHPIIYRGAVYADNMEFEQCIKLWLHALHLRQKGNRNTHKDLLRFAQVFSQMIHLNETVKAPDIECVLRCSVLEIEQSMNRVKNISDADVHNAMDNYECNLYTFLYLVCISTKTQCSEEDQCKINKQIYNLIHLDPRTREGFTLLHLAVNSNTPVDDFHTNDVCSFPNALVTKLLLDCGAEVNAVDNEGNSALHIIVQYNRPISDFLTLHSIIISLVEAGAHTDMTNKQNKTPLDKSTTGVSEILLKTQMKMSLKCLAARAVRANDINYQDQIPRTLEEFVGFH
Chain of FNIP1 (Homo sapiens) (Q8TF40 whole entry): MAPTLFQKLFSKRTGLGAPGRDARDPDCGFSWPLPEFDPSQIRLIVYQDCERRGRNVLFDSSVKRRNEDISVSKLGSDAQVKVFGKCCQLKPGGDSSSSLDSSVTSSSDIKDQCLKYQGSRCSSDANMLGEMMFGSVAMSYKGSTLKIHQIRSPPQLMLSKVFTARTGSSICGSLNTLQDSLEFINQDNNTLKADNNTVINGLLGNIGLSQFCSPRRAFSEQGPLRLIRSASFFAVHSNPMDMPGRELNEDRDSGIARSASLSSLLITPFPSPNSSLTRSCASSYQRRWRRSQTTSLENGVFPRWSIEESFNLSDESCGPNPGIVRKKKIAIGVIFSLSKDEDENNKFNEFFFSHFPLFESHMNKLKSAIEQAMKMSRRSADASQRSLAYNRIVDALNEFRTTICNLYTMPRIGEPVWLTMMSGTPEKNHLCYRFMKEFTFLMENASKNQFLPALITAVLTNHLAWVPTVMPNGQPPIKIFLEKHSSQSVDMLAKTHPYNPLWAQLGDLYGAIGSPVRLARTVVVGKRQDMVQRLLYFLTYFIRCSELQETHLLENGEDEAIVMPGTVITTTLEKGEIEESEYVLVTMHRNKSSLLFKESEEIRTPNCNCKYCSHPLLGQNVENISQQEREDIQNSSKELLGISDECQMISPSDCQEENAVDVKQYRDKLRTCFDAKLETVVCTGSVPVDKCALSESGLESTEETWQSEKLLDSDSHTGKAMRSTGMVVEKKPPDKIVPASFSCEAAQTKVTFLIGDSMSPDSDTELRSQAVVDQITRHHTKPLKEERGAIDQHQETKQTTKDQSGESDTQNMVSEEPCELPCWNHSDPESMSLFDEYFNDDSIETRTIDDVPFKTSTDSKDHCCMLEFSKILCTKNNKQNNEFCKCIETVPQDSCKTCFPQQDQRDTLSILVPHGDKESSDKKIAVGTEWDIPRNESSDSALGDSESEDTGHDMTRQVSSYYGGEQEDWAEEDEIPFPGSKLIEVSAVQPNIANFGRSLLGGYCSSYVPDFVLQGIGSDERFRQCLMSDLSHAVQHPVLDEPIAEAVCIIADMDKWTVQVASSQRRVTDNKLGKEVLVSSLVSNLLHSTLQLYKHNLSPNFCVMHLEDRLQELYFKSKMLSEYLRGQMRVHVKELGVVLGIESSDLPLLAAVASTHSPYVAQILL

As a reminder, the Kd is the equilibrium constant for the complex coming apart. As for FEM1B (from UniProt Q9UK73), the Kd is 20 nM.
